Laboratory results: patent publication US20220177587A1, “METHODS AND USES OF VARIANT CD80 FUSION PROTEINS AND RELATED CONSTRUCTS” (Alpine Immune Sciences, Inc., priority 2018, published 2022)
Residue numbers refer to the chain shown, from its start. Numbers in names are those of the source. One block for each molecule: values may come before it.

Assays:
[1] = target: T1, CD28 (Homo sapiens, UniProt P10747); experiment: Flow binding to Jurkat/IL2 reporter cells (CD28); parameters: host or cells: Jurkat cells expressing an IL-2-luciferase reporter; conditions: 33.3 nM
Experimental: (§1) Binding of selected immunomodulatory fusion proteins to cognate binding partners was assessed. […] Cells were sorted in a Bio-Rad S3 Cell Sorter (Bio-Rad Corp., USA) to >98% purity. Jurkat/IL2 reporter cells, which endogenously express CD28, were used to detect binding to CD28.
(§2) For staining and analysis by flow cytometry, 100,000 cells of appropriate transfected cells were plated in 96-well round bottom plates. Cells were spun down and resuspended in staining buffer (phosphate buffered saline (PBS), 1% bovine serum albumin (BSA), and 0.1% sodium azide) for 20 minutes to block non-specific binding. […] Primary staining was performed on ice for 45 minutes, before washing cells in staining buffer twice. Phycoerythrin (PE)-conjugated anti-human Fc (Jackson ImmunoResearch, USA) was diluted 1:150, added to cells and incubated another 30 minutes on ice. Cells were then washed twice with 150 μL/well stain buffer, fixed in 2% formaldehyde/PBS, and analyzed on Intellicyt flow cytometer (Intellicyt Corp., USA). PE Mean Fluorescence Intensity (MFI) was calculated for each cell type with FlowJo Version 10 software (FlowJo LLC, USA).
(§3) Binding assays were carried out to assess the specificity and affinity of multivalent proteins to cell-expressed CTLA-4, CD28, and PD-L1 counter structures.
(§4) The EC50 for binding also was determined.

[2] = target: huPD-L1 (Homo sapiens, UniProt Q9NZQ7); experiment: Flow binding to CHO cells stably expressing PD-L1; parameters: huCTLA4 and huPD-L1, full-length mammalian surface expression constructs were generated; expressed in transfected cells; host or cells: CHO cells, lentiviral transduction, sorted to >98% purity; conditions: CHO cells stably expressing PD-L1
huPD-L1, sequence (Q9NZQ7 19-290): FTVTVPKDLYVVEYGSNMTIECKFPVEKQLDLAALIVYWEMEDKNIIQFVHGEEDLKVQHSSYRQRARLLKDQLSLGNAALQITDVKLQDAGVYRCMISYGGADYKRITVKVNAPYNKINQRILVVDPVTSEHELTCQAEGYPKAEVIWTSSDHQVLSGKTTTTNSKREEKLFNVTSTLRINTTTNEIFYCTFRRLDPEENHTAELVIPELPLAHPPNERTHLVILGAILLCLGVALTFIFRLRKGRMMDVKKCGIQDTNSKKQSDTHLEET
Experimental: as §1, §2, §3, §4

[3] = target: T1, CD28; experiment: Jurkat/IL2 + CHO/OKT3 +/- PD-L1 reporter assay: PD-L1-dependent CD28 costimulation; assay type: cell-based; parameters: host or cells: Jurkat cells expressing an IL-2-luciferase reporter; conditions: Jurkat/IL2 + CHO/OKT3/PD-L1
Experimental: Jurkat cells were then plated at 50 μL/well for a total of 100,000 cells per well.
To each well, 25 μL of test protein was added to the Jurkat cells. […] The Jurkat cells with test or control proteins were incubated for 15 minutes at room temperature. CHO-derived artificial antigen presenting cells (aAPC) displaying transduced cell surface anti-CD3 single chain Fv (OKT3) (i.e., no PD-L1), or OKT3 and PD-L1 (i.e., +PD-L1), were brought to 0.8×10^6 cells/mL, and 25 μL of cells were added to each well, bringing the final volume of each well to 100 μL. […] Jurkat cells and CHO cells were incubated for 5 hours at 37 degrees Celsius in a humidified 5% CO2 incubation chamber. Plates were then removed from the incubator and acclimated to room temperature for 15 minutes. 100 μL of a cell lysis and luciferase substrate solution (BioGlo luciferase reagent, Promega) were added to each well and the plates were incubated on an orbital shaker for 10 minutes. Luminescence was measured with a 1 second per well integration time using a BioTek Cytation luminometer, and a relative luminescence value (RLU) was determined for each test sample.

[4] = target: huCTLA4 (Homo sapiens, UniProt P16410); experiment: Flow binding to CHO cells stably expressing CTLA4; parameters: huCTLA4 and huPD-L1, full-length mammalian surface expression constructs were generated; expressed in transfected cells; host or cells: CHO cells, lentiviral transduction, sorted to >98% purity; conditions: Table E23; CD80 IgV-Fc (inert) at 33.3 nM; CHO cells stably expressing CTLA4
huCTLA4, sequence (P16410 36-223): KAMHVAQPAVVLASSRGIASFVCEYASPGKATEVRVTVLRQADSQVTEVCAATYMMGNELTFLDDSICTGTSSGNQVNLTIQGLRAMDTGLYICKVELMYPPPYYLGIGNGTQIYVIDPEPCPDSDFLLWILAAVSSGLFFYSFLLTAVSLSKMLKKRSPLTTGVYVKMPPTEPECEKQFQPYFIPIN
Experimental: as §1, §2, §3, §4

[5] = Table E16, consensus variants, Jurkats (CD28)

B5: E35D/D46E/M47L/V68M/T79M/L85M (protein, UniProt P33681 35-288, looked up, variant E35D D46E M47L V68M T79M L85M)
T-lymphocyte activation …: VIHVTKEVKEVATLSCGHNVSVEELAQTRIYWQKDKKMVLTMMSGELNIWPEYKNRTIFDITNNLSIMILALRPSDEGMYECVVMKYEKDAFKREHLAEVTLSVKADFPTPSISDFEIPTSNIRRIICSTSGGFPEPHLSWLENGEELNAINTTVSQDPETELYAVSSKLDFNMTTNHSFMCLIKYGHLRVNQTFNWNTTKQEHFPDNLLPSWAITLISVNGIFVICCLTYCFAPRCRERRRNERLRRESVRPV
PD-L1 MFI at 33.3 nM ([2]; Table E11, 33.3 nM): 8641 | Relative Luciferase Units (RLU), CD80 Cone 5.0 nM ([3]; Table E13, 5.0 nM): 1137 RLU | CD28 MFI at 33.3 nM ([1]; Table E11, Jurkats (CD28)): 403

B7: H18Y/E35D/M47I/V68M/Y87N (protein, UniProt P33681 35-288, looked up, variant H18Y E35D M47I V68M Y87N)
T-lymphocyte activation …: B5 T-lymphocyte activation … with H18Y, E46D, L47I, M79T, M85L, Y87N
modifications: Fc fusion
CD28 MFI at 33.3 nM ([1]; Table E11, Jurkats (CD28)): 4038 | CD28 MFI at 33.3 nM [1, 5]: 1429

B8: H18Y/E35D/V68M/L85M/R94Q (protein, UniProt P33681 35-288, looked up, variant H18Y E35D V68M L85M R94Q)
T-lymphocyte activation …: B5 T-lymphocyte activation … with H18Y, E46D, L47M, M79T, R94Q
PD-L1 MFI at 33.3 nM ([2]; Table E11, 33.3 nM): 14410 | PD-L1 MFI at 33.3 nM ([2]; Table E16, consensus variants, 33.3 nM): 9283 | Relative Luciferase Units (RLU), CD80 Cone 5.0 nM ([3]; Table E13, 5.0 nM): 195 RLU | Relative Luciferase Units (RLU), CD80 Cone 5.0 nM ([3]; Table E17, consensus variants, 5.0 nM): 2215 RLU | CD28 MFI at 33.3 nM ([1]; Table E11, Jurkats (CD28)): 14 | CD28 MFI at 33.3 nM [1, 5]: 962

B9: T13R/E35D/M47LN68M (protein)
chain: VIHVTKEVKEVARLSCGHNVSVEELAQTRIYWQKDKKMVLTMMSGDLNIWPEYKNRTIFDITNNLSIMILALRPSDEGTYECVVLKYEKDAFKREHLAEVTLSVKAD
PD-L1 MFI at 33.3 nM ([2]; Table E11, 33.3 nM): 19969 | CD28 MFI at 33.3 nM ([1]; Table E11, Jurkats (CD28)): 15.6

B10: V22D/E24D/E35D/M47L/V68M (protein)
chain: VIHVTKEVKEVATLSCGHNVSDEDLAQTRIYWQKDKKMVLTMMSGDLNIWPEYKNRTIFDITNNLSIMILALRPSDEGTYECVVLKYEKDAFKREHLAEVTLSVKADFPTPSISDFETPTSNIRRIICSTSGGFPEPHLSWLENGEELNAINTTVSQDPETELYAVSSKLDFNMTTNHSFMCLIKYGHLRVNQTFNWNTTKQEHFPDN
modifications: CD80 v383 ECD
PD-L1 MFI at 33.3 nM ([2]; Table E11, 33.3 nM): 15418 | Relative Luciferase Units (RLU), CD80 Cone 5.0 nM ([3]; Table E13, 5.0 nM): 974 RLU | CD28 MFI at 33.3 nM ([1]; Table E11, Jurkats (CD28)): 1254

B13: E35D/D46V/M47V/V68M/K89N (protein)
chain: B9 chain with R13T, D46V, L47V, K89N
PD-L1 MFI at 33.3 nM ([2]; Table E19, 33.3 nM): 21603 | Relative Luciferase Units (RLU), CD80 Conc 5.0 nM ([3]; Table E21, CD80 Conc 5.0 nM): 817 RLU | CD28 MFI at 33.3 nM ([1]; Table E19, Jurkats (CD28)): 2119

B14: A26E/E35D/V68M/A71G (protein)
chain: B9 chain with R13T, A26E, L47M, A71G
PD-L1 MFI at 33.3 nM ([2]; Table E20, 33.3 nM): 12611 | Relative Luciferase Units (RLU), CD80 Conc 5.0 nM ([3]; Table E22, CD80 Conc 5.0 nM): 839 RLU | CD28 MFI at 33.3 nM ([1]; Table E20, Jurkats (CD28)): 135

B15: H18R/A26P/E35D/D46N/M47V/V68M/A71G/D90P (protein, UniProt P33681 35-288, looked up, variant H18R A26P E35D D46N M47V V68M A71G D90P)
T-lymphocyte activation …: B5 T-lymphocyte activation … with H18R, A26P, E46N, L47V, A71G, M79T, M85L, D90P
modifications: Fc fusion
PD-L1 MFI at 33.3 nM ([2]; Table E23, CD80 IgV-Fc (inert) at 33.3 nM): 29306 | CTLA4 MFI at 33.3 nM [4]: 17327 | Relative Luciferase Units (RLU), CD80 Conc 5.0 nM ([3]; Table E24, 5.0 nM): 972 RLU

Now from value to molecule:

CD28 MFI at 33.3 nM ([1]; Table E4, Jurkat cells (CD28)): 692
B1: E35D/M47V/N48I/L85Q (protein)
chain: B9 chain with R13T, L47V, N48T, M68V, L85Q

PD-L1 MFI at 33.3 nM ([2]; Table E10, 33.3 nM): 2614 | Relative Luciferase Units (RLU), CD80 Cone 5.0 nM ([3]; Table E12, 5.0 nM): 914 RLU | CD28 MFI at 33.3 nM ([1]; Table E10, Jurkats (CD28)): 44.6
B2: E35D/L97R (protein)
chain: B9 chain with R13T, L47M, M68V, L97R

PD-L1 MFI at 33.3 nM ([2]; Table E10, 33.3 nM): 5660 | Relative Luciferase Units (RLU), CD80 Cone 5.0 nM ([3]; Table E12, 5.0 nM): 2116 RLU | CD28 MFI at 33.3 nM ([1]; Table E10, Jurkats (CD28)): 413
B3: E35D/M47V/N48K/L85M (protein)
chain: B9 chain with R13T, L47V, N48K, M68V, L85M

PD-L1 MFI at 33.3 nM ([2]; Table E10, 33.3 nM): 3031 | Relative Luciferase Units (RLU), CD80 Cone 5.0 nM ([3]; Table E12, 5.0 nM): 1731 RLU | CD28 MFI at 33.3 nM ([1]; Table E10, Jurkats (CD28)): 582
B4: E35D/N48K/L72V (protein)
chain: B9 chain with R13T, L47M, N48K, M68V, L72V

PD-L1 MFI at 33.3 nM ([2]; Table E11, 33.3 nM): 18600 | Relative Luciferase Units (RLU), CD80 Cone 5.0 nM ([3]; Table E13, 5.0 nM): 1086 RLU | CD28 MFI at 33.3 nM ([1]; Table E11, Jurkats (CD28)): 14
B6: E35D/M47L/V68M/E95V/L97Q (protein, UniProt P33681 35-288, looked up, variant E35D M47L V68M E95V L97Q)
T-lymphocyte activation …: B5 T-lymphocyte activation … with E46D, M79T, M85L, E95V, L97Q
modifications: Fc fusion

PD-L1 MFI at 33.3 nM ([2]; Table E19, 33.3 nM): 5801 | Relative Luciferase Units (RLU), CD80 Conc 5.0 nM ([3]; Table E21, CD80 Conc 5.0 nM): 416 RLU | CD28 MFI at 33.3 nM ([1]; Table E19, Jurkats (CD28)): 88.1
B11: M47L/L85Q (protein)
chain: B9 chain with R13T, D35E, M68V, L85Q

PD-L1 MFI at 33.3 nM ([2]; Table E19, 33.3 nM): 17425 | CD28 MFI at 33.3 nM ([1]; Table E19, Jurkats (CD28)): 1534
B12: E35D/N48K/V68M/K89N (protein)
chain: B9 chain with R13T, L47M, N48K, K89N

Relative Luciferase Units (RLU), CD80 Conc 5.0 nM ([3]; Table E26, linker variants, 5.0 nM): 1400 RLU | CD28 MFI at 33.3 nM ([1]; Table E25, linker variants, Jurkats (CD28)): 2109
B16: E35D/M47V/N48K/V68M/K89N GS(G4S)3 (protein, UniProt P33681 35-288, looked up, variant E35D M47V N48K V68M K89N)
T-lymphocyte activation …: B5 T-lymphocyte activation … with E46D, L47V, N48K, M79T, M85L, K89N
modifications: GS(G4S)3 linker
